For one substance, reduction of serum cholesterol in LAHB mice after AAV8.TBG.hLDLR (% reduction of serum cholesterol) results are on record in patent US20200230184A1.

This experiment concerns the target human ApoB100 (human) (UniProt P04114). As to the kind of experiment: cell-based or functional assay.
UniProt P04114, sequence (P04114 28-4563 limits assumed): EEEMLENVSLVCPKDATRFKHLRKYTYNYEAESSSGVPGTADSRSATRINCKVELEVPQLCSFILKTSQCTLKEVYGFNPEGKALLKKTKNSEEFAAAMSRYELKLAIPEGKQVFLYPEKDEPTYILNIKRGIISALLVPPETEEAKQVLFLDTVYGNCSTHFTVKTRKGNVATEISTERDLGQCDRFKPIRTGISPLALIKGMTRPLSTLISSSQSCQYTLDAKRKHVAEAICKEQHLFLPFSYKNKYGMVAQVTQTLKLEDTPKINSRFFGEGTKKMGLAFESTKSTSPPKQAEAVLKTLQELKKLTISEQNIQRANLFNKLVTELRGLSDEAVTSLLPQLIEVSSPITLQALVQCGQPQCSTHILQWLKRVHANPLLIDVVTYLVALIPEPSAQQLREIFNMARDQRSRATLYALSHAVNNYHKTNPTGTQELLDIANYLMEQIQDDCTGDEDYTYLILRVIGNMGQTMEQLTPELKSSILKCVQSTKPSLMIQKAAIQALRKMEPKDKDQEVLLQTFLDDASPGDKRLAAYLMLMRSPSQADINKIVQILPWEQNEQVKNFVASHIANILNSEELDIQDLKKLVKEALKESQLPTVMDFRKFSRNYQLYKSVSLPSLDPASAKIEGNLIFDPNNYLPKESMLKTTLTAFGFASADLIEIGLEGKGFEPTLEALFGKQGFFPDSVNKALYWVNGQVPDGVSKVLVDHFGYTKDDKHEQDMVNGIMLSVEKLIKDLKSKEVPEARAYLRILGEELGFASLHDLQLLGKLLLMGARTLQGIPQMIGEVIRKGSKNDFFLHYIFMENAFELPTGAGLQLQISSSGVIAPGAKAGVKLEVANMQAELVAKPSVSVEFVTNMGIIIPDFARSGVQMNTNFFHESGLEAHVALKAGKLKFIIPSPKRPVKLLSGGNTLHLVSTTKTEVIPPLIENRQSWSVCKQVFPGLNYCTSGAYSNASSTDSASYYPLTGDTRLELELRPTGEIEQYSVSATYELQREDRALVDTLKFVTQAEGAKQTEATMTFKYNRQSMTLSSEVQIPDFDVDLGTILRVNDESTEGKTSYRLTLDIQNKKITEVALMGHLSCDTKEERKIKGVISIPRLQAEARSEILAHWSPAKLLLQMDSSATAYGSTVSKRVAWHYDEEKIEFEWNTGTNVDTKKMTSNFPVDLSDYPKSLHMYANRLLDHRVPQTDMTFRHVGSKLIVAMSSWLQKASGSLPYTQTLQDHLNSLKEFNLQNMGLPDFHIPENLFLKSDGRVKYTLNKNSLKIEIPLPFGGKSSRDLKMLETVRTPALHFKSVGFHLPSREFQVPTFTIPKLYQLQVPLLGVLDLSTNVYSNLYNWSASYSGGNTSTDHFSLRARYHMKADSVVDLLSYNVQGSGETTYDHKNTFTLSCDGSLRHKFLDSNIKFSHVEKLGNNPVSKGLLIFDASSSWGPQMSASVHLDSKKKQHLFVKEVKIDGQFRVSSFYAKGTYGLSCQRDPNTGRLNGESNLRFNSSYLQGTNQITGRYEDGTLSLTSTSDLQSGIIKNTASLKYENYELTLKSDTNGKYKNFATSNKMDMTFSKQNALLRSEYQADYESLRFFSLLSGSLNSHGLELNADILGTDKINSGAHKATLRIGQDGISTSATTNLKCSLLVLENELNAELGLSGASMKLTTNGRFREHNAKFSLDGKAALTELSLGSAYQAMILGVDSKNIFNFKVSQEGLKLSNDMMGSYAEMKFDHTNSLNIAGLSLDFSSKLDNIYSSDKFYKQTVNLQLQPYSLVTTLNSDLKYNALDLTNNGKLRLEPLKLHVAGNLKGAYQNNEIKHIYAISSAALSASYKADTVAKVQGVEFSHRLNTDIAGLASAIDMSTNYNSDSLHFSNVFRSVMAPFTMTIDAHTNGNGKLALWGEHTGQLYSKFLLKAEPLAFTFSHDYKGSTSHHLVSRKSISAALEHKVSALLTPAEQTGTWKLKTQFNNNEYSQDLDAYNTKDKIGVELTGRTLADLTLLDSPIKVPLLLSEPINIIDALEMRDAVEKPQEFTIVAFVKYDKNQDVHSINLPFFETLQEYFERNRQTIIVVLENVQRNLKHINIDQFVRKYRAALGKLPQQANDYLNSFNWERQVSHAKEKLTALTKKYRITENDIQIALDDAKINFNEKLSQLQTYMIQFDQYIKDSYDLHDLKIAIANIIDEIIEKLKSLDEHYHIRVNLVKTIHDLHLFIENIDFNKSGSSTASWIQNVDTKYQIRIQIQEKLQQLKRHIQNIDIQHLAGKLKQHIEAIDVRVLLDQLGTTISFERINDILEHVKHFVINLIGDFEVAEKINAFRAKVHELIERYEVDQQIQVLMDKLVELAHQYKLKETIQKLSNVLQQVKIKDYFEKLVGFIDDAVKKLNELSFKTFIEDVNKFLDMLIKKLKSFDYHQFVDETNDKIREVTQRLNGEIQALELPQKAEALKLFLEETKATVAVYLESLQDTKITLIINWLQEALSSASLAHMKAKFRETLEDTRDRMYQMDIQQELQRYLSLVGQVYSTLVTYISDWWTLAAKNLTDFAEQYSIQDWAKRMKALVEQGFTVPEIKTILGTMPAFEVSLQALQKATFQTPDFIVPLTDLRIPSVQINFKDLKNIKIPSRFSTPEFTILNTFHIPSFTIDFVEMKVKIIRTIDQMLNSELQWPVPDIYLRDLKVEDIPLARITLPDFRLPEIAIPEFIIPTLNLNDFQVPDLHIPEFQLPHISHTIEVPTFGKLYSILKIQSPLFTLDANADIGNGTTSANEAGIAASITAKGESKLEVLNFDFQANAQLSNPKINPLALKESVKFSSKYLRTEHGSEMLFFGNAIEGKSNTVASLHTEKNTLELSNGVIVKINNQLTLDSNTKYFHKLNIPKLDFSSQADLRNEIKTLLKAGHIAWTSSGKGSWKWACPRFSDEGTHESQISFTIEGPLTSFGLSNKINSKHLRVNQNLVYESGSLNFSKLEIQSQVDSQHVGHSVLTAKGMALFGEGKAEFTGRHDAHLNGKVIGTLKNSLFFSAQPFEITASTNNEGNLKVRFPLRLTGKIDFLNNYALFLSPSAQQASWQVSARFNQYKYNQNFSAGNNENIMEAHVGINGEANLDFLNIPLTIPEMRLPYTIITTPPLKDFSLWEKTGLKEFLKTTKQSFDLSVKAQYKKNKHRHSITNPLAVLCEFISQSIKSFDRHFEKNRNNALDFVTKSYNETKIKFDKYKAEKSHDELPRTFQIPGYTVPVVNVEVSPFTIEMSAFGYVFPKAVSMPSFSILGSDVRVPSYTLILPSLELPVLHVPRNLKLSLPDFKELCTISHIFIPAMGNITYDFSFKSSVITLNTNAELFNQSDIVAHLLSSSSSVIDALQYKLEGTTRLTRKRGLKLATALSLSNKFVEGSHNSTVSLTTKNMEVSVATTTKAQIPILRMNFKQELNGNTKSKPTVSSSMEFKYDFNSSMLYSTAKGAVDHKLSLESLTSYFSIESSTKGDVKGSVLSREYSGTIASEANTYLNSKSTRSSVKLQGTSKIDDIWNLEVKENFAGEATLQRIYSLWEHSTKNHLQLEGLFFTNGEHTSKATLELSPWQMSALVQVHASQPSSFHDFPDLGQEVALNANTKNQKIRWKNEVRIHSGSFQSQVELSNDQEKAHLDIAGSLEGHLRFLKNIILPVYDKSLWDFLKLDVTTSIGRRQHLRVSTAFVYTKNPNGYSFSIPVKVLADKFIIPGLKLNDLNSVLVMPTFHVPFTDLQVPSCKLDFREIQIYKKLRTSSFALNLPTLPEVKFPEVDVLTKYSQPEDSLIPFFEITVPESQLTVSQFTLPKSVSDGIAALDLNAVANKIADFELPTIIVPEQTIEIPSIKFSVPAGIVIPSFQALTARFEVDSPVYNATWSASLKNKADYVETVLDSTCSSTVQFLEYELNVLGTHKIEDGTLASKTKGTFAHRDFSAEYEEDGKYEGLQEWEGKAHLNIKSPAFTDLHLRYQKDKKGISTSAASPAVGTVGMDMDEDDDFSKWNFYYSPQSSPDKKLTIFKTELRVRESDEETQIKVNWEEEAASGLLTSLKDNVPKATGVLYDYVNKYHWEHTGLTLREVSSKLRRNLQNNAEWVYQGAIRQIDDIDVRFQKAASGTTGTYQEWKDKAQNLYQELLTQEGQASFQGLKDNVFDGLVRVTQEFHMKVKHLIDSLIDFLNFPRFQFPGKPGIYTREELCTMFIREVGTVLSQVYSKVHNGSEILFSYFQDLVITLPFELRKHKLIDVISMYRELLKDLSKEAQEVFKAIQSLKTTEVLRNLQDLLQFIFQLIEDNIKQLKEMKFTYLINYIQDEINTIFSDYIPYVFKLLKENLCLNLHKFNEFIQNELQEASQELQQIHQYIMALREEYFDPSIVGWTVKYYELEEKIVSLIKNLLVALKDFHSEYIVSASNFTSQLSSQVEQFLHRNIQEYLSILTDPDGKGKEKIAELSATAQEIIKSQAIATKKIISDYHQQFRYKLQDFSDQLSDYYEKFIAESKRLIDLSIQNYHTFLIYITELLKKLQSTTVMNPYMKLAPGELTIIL

“human low density lipoprotein receptor (hLDLR) (from UniProt P01130 22-860)” displayed a reduction of serum cholesterol in LAHB mice after AAV8.TBG.hLDLR (% reduction of serum cholesterol) of 30.
